Assay results: US20260049134A1 (UNIVERSITY OF FLORIDA RESEARCH FOUNDATION, published 2026)

T1: CADM1-His (Acro Biosystems) (human, UniProt Q9BY67 45-374)
T1 construct: Bought; also called CADM1/IGSF4A; not shown: His tag of the bought protein
T1 sequence: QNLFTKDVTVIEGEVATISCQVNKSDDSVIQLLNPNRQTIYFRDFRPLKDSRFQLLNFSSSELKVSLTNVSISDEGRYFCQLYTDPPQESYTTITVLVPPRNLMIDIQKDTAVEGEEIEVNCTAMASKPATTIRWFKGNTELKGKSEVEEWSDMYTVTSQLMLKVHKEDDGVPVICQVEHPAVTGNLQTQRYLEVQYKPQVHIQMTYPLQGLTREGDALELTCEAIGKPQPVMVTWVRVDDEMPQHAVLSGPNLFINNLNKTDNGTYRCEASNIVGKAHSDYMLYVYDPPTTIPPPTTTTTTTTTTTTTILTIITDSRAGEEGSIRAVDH

T2: IL13RA1
T2 construct: coated protein in the ELISA; also called IL13RA1-Fc-His (R&D Systems)
T2 chain: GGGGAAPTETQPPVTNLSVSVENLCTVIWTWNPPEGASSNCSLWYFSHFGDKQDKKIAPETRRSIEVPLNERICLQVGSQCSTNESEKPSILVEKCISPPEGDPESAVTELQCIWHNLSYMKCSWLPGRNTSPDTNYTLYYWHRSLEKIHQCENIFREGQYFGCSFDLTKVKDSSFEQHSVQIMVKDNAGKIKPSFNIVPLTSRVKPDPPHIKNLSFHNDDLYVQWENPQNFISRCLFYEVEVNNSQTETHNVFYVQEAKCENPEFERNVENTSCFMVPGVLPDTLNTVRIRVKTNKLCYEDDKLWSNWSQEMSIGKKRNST

T3: GARS, endogenous in H929 multiple myeloma cells (human, UniProt P41250 37-739, limits assumed)
T3 construct: Native protein pulled down from H929 lysates; also called Glycyl-tRNA synthetase; GlyRS
T3 sequence: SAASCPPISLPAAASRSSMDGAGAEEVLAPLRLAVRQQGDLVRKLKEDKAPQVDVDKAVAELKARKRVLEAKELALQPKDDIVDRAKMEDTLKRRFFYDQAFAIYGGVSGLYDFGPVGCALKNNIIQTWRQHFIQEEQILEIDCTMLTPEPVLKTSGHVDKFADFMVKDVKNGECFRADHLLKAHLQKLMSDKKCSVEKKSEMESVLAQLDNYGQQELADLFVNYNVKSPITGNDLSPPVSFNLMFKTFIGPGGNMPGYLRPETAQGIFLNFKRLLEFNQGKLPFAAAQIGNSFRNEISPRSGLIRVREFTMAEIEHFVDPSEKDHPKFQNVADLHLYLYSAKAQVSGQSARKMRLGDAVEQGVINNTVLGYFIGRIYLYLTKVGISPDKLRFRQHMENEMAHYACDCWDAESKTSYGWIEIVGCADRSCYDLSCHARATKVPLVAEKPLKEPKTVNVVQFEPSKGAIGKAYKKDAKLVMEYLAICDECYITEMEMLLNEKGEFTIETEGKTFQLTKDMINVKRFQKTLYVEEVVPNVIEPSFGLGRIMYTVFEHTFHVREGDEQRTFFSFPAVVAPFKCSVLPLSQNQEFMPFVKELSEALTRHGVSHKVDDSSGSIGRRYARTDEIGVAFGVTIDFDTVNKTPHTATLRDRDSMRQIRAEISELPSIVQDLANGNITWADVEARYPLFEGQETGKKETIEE


What was measured:
[1] = molecular target: T4, PTPRG, endogenous in H929 multiple myeloma cells (human, UniProt P23470 20-1445); experiment: flow cytometry, H929 + vehicle; None 2.74
T4 construct: Native protein on H929 cells (flow cytometry, siRNA knockdown) and in H929 lysates (IP/MS); also called phosphatase receptor type γ
T4 sequence (P23470 20-1445 limits assumed): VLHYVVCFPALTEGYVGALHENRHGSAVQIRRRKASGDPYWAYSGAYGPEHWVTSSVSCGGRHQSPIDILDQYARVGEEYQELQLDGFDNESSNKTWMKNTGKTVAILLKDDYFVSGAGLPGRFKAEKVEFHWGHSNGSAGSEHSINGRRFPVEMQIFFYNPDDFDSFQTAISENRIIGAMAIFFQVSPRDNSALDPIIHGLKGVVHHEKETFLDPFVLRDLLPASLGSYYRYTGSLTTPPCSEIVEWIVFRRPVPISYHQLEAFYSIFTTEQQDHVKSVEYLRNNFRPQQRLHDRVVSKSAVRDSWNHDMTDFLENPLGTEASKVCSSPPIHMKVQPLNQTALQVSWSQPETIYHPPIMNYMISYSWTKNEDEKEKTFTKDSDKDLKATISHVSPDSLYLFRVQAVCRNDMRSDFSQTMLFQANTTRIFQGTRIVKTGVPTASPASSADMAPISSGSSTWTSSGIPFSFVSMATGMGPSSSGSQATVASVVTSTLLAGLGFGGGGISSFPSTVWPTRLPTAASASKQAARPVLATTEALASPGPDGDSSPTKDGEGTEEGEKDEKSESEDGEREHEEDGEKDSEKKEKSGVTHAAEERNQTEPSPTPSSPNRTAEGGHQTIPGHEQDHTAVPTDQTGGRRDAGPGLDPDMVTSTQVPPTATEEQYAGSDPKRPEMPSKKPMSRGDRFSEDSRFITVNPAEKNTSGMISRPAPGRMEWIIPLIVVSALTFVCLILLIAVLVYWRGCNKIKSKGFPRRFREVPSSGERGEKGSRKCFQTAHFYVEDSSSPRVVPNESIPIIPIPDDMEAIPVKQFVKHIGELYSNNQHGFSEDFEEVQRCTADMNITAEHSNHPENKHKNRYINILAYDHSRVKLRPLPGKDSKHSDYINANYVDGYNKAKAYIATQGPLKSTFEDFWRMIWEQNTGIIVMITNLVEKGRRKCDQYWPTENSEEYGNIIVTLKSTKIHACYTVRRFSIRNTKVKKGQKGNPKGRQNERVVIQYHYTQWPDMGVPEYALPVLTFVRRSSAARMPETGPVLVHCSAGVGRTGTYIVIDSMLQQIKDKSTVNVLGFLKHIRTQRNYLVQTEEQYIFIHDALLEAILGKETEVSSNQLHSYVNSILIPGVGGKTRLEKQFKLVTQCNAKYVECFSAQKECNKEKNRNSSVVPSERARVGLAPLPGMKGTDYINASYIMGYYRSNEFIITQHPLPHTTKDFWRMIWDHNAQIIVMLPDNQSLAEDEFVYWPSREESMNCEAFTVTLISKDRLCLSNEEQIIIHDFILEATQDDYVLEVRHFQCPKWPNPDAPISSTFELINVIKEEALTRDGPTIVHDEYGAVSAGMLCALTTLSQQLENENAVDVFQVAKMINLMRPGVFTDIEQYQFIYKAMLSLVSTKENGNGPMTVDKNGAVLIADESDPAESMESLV

[2] = molecular target: T1, CADM1-His (Acro Biosystems); experiment: ELISA on coated CADM1-His
Protocol: (§1) Recombinant purified ECDs (50-150 ng) of each putative target protein were coated, incubated with 150 ng of the indicated primary antibody, and binding was detected using a peroxidase-conjugated anti-human Fab secondary antibody. Heatmap represents averages of technical triplicates. (8B) Target validation via siRNA knockdown. H929 cells were transfected with siRNA pools targeting the putative antibody targets ICAM1, CADM1, and PTPRG. Cells were then subjected to cognate IgG binding analysis via flow cytometry. (NT, non-targeting siRNA).
(§2) ELISA ELISA was conducted as described previously. Briefly, 50-150 ng of antigen was coated overnight in half-area 96-well plates at 4° C., blocked with 3% BSA at 37° C. for 1 h, and 150 ng of chimeric rabbit/human IgG1 was added, incubating for 2 h at 37° C. […] After incubating at 37° C. for 15 min-1 h (depending on intensity of controls), data were acquired using a SpectraMax M5 plate reader (Molecular Devices).

IL13RA1 = molecular target: T2, IL13RA1; experiment: ELISA on coated IL13RA1-Fc-His
Protocol: as §1, §2

ICAM1-Fc (R&D Systems) = molecular target: T5, ICAM1-Fc (R&D Systems) (human, UniProt P05362 28-480); experiment: ELISA on coated ICAM1-Fc
T5 construct: Bought; also called ICAM-1/CD54; not shown: Fc of the bought fusion protein
T5 sequence (P05362 28-480): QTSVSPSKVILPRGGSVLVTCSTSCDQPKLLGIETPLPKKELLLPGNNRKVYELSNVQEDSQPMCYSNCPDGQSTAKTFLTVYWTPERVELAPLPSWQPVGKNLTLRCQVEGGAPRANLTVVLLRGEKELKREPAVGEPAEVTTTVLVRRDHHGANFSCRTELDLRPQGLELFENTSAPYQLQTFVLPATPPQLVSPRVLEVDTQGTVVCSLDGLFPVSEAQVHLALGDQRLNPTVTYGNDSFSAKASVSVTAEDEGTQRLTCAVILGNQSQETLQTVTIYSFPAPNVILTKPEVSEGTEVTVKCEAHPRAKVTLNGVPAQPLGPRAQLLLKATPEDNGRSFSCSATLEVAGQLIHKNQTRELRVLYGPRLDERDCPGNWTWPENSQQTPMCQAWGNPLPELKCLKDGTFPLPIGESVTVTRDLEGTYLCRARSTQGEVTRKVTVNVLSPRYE
Protocol: as §1, §2

[3] = molecular target: T4, PTPRG, endogenous in H929 multiple …; experiment: flow cytometry, H929 + NT Green siRNA; None 416
[4] = molecular target: T3, GARS, endogenous in H929 multiple …; experiment: flow cytometry, H929 + ICAM1 siRNA; None 1.06; surface target GARS putative
[5] = molecular target: T3, GARS, endogenous in H929 multiple …; experiment: flow cytometry, H929 + CADM1 siRNA; None 449; surface target GARS putative

Binder	Cells stained (%) [1] [%]	mAb binding (MFI) [3]	Cells stained (%) [4] [%]	mAb binding (MFI) [5]	binding result [2]	binding result (IL13RA1)	binding result (ICAM1-Fc (R&D Systems))
HW-42 chimeric rabbit-human IgG1 LA/LA/PG (antibody, V domains shown, Fc-silenced (L234A/L235A/P329G) IgG1, lambda; Alexa Fluor 647-labeled in single-step flow cytometry; Cluster C-1) VH: QSVKESEGGLFKPADTLTLTCTVSGFSLSSNEISWVRQAPGEGLEYIGIIDTGGRAYYAVWARSRSTITRNTNLNTVTLKMTSLTAADTATYFCARGGVDTEWYAFSSWGPGTLVTVPS VL: SFVLTQPASVQVNLGQTVSLTCTADTLSRRYASWYQQKPGQAPVLLIFRDTSRPSGVPDRFSGSSSGDTATLTISGAQAGDEADYYCATSDGSGSNYQYVFGGGTQLTVTG	97.5	8410	–	–	no binding (tested: 150 ng IgG1 per well)	no binding (tested: 150 ng IgG1 per well)	no binding (tested: 150 ng IgG1 per well)
HW-28 chimeric rabbit-human IgG1 LA/LA/PG (antibody, V domains shown, Fc-silenced (L234A/L235A/P329G) IgG1, lambda; Alexa Fluor 647-labeled in single-step flow cytometry; Cluster C-45) VH: QKQLVESGGRLVTPGTPLTLTCTASGFSLSSNAMSWVRQAPGEGLQWIGTISSGGSTYYASWAKGRFTISKTSTTVTLKMTSLTTEDTATYFCARGADLHRLWGPGTLVTVSS VL: SFVLTQPASVQVNLGQTVSLTCTGKPLSRSFASWYQQKPGQAPVLVIYRDTSRPSGVPDRFSGSSSGNTATLTISGAQAGDEADYYCATSDGSGSSYQYVFGGGTQLTVTG	–	–	96.9	66800	–	–	no binding (tested: 150 ng IgG1 per well)
HW-45 chimeric rabbit-human IgG1 LA/LA/PG (antibody, V domains shown, Fc-silenced (L234A/L235A/P329G) IgG1, lambda; Alexa Fluor 647-labeled in single-step flow cytometry; Prototype of cluster C-45) VH: QKQLVESGGRLVTPGTPLTLTCTVSGFSLSSYAMGWFRQAPGKGLEWIGIINSYGSTYYASWAKGRFTISKTSTTVDLKITSPTTEDTATYFCGRRIGSARFDPWGPGTLVTVSS VL: SFVLTQPASVQVNLGQTVSLTCTADTLSRSYASWYQQKPGQAPVLLIYRDTRRPSGVPDRFSGSSSGNTATLTISGAQAGDEADYYCATSDGSGSSYRLVFGGGTQLTVTG	–	–	95.1	33400	–	–	–
HW-25 chimeric rabbit-human IgG1 LA/LA/PG (antibody, V domains shown, Fc-silenced (L234A/L235A/P329G) IgG1, lambda; Alexa Fluor 647-labeled in single-step flow cytometry; Cluster C-1) VH: QSLEESGGRLVTPGTPLTLTCTVSGFSLSSYAMGWVRQAPGKGLEWIGIIDSRGSTYYATWAKGRFTISKTSTTVDLKITSPTTEDTATYFCAREDSYYYDSFNLWGPGTLVTVSS VL: SFVLTQPASVQVNLGQTVSLTCTADTLSRRYASWYQQKPGQAPVLLIYRDTSRPSGVPDRFSGSSSGNTATLTISGAQAGDEADYYCATSDGSGSSYQCVFGGGTQLTVTG	97.2	7680	–	–	no binding (tested: 150 ng IgG1 per well)	no binding (tested: 150 ng IgG1 per well)	no binding (tested: 150 ng IgG1 per well)

Now from value to binder, other results behind:

Cells stained (%) [1] [%]	mAb binding (MFI) [3]	Cells stained (%) [4] [%]	mAb binding (MFI) [5]	Binder	binding result [2]	binding result (IL13RA1)	binding result (ICAM1-Fc (R&D Systems))
2.62	483	–	–	TH9-0022 (antibody, human IgG1, kappa, L234A L235A, V domains shown, also called TH9-022; negative control) VH: QSLEESGGRLVTPGTPLTLTCTVSGFSLSSYAMNWVRQAPGKGLEWIGIINSYGSTYYASWAKGRFTISKTSTTVDLKITSPTTEDTATYFCARVTYDSYGYGYAPYGMDLWGPGTLVTVSS VL: LVMTQTPSSTSNAVGGTVTIKCQASQSIGNVLAWYQQKPGQPPKLLIYAASTLASGVPSRVGGSRSGTEYTLTISGVQREDAATYYCLGSDSDSDIAFGGGTELEILR	no binding (tested: 150 ng IgG1 per well)	no binding (tested: 150 ng IgG1 per well)	no binding (tested: 150 ng IgG1 per well)
–	–	99.2	547000	HW-56 chimeric rabbit-human IgG1 LA/LA/PG (antibody, V domains shown, Fc-silenced (L234A/L235A/P329G) IgG1, kappa; Alexa Fluor 647-labeled in single-step flow cytometry; Cluster C-45) VH: QSVKESEGGLFKPTDTLTLTCTASGFTVSTNAVTWVRQAPGNGLEYIGTIGRSGSAYFASWAKRRSTLTRDINLNTVTLKMTSLTAADTATYFCVRGSPGYRTAISIWGPGTLVTISS VL: AVMTQTPSSTSAAVEGTVTINCQASQSISNRLSWFQQKPGQPPKLLIYQASTLASGVPSRFKGSGSGTEFTLTISGVQREDAATYYCLGSYSSSDASFGGGTKLEIKR	no binding (tested: 150 ng IgG1 per well)	–	no binding (tested: 150 ng IgG1 per well)
98.6	12600	–	–	HW-70 chimeric rabbit-human IgG1 LA/LA/PG (antibody, V domains shown, Fc-silenced (L234A/L235A/P329G) IgG1, lambda; Alexa Fluor 647-labeled in single-step flow cytometry; Cluster C-1) VH: QSLEESGGRLVTPGTPLTLTCTVSGFSLSSNAMSWVRQAPGKGLEWIGTIDGYGYTYYASWAKGRFTVSKTSTTVDLKITSPTTEDTATYFCAREIYLGSNFWGPGTLVTISS VL: SFVLTQPASVQVNLGQTVSLTCTADTLSRRYASWYQQKPGQAPVLLIYRDTSRPSGVPDRFSGSSSGNTATLTISGAQAGDEADYYCATADGSGSSYQFVFGGGTQLTVTG	no binding (tested: 150 ng IgG1 per well)	no binding (tested: 150 ng IgG1 per well)	no binding (tested: 150 ng IgG1 per well)
–	–	99.1	696000	HW-81 chimeric rabbit-human IgG1 LA/LA/PG (antibody, V domains shown, Fc-silenced (L234A/L235A/P329G) IgG1, lambda; Alexa Fluor 647-labeled in single-step flow cytometry; Cluster C-45) VH: QKQLVESGGGLVTPGGTLTLTCTVSGFSLSSNGVSWVRQAPGKGLEYIGLIRSIGSTYYATWAKGRFTISKTSTTVDLKITSPTTEDTATYFCARGGYRNGFKLWGPGTLVTVSS VL: QPVLTQSPSVSAALGASAKLTCTLSSAHKTYYIEWYQQQHPGKAPRYLMQLQSDGSYTKGTGVPDRFSGSSSGADRYLIISSVQAEDEADYICGVIDSAVYVFGGGTQLTVTG	no binding (tested: 150 ng IgG1 per well)	no binding (tested: 150 ng IgG1 per well)	no binding (tested: 150 ng IgG1 per well)
–	–	98.1	45900	HW-16 chimeric rabbit-human IgG1 LA/LA/PG (antibody, V domains shown, Fc-silenced (L234A/L235A/P329G) IgG1, kappa; Alexa Fluor 647-labeled in single-step flow cytometry; Cluster C-45) VH: QSLEESGGRLVTPGTPLTLTCTASGFSLSSYAMSWVRQAPGKGLEWIGTMPTGGGTYYASWAKGRFTISKTSTTVDLQITSPTTEDTATYFCAKHWNIWGPGTLVTISS VL: DIVLTQTPSSTSTAVGDTVTINCRASQSIGRNLAWFQQKPGQPPKLLIYRASNLASGVPSRFKGSGSRTQFTLTISGVQREDAATYYCLGSYSSSDTAFGGGTELEILR	no binding (tested: 150 ng IgG1 per well)	–	no binding (tested: 150 ng IgG1 per well)
–	–	76.3	17000	HW-8 chimeric rabbit-human IgG1 LA/LA/PG (antibody, V domains shown, Fc-silenced (L234A/L235A/P329G) IgG1, kappa; Alexa Fluor 647-labeled in single-step flow cytometry; Cluster C-45) VH: QSLEESGGRLVTPGTPLTLTCTVSGFSLSSYAMSWVRQAPGKGLEWIGAISTGGSTTYASWAKGRFTISKTSSTTVDLKMTSLTTEDTATYFCVRHFRLWGPGTLVTISS VL: QVLTQTPSSVSAAVGGTVTIKCQASQSIGSALAWFQQKPGQRPKLLIYRASNLASGVPSRFKGSGSGTEFALTISGVQREDAATYYCLGGAAAVWAFGAGTNVEIKR	–	no binding (tested: 150 ng IgG1 per well)	–
